Measured values reported in patent US20030022837A1 (Stanford University, published 2003).

Biological target: T1, His-Cdc20 (baculovirus-expressed human Cdc20) (human, UniProt Q12834 1-499)
T1 construct: Also used for the Cdc20 baculovirus of the SF9 co-infection; also called purified baculovirus-expressed Cdc20; Baculovirus-expressed Cdc20; not shown: His tag
Assay: SF9 cells co-infected with Emi1 and Cdc20 baculoviruses, anti-Emi1 immunoprecipitation, Cdc20 immunoblot

T1 sequence (Q12834 whole entry): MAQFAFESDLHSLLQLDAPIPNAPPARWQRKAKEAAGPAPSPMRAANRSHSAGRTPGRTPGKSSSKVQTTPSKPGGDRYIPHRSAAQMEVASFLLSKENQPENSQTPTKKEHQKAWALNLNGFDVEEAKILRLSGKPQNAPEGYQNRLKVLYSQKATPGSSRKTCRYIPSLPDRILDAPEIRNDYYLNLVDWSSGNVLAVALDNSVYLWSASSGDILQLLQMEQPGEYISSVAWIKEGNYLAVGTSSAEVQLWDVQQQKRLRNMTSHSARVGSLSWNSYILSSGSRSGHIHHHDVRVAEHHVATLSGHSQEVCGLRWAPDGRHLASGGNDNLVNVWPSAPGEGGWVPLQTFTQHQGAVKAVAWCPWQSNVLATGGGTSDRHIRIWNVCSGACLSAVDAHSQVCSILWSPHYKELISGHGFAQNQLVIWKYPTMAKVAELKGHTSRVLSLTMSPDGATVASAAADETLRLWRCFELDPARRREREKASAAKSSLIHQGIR

binding result: binds
B1: Xenopus Emi1 (Early Mitotic Inhibitor 1), full-length wild type (other)
chain: MMCGFASNQSPKKLSSKKSSATNVHLEISPVKHHPPCKVYENVQGSCLDSAICTTVAKCADLTDDLPVHNKENLLHRLNDLETNSYEEYSALQDSGYSSILQNDSPCQDETDRKVSDIQVRETPKNFMSYQRPFHTLSKINLPILRFEEAVCSTLKKMRKTNKKIDWNAVDVVCGGNYGLEHLIGKSMGLERFDILAELFHRDFKHLLTKILRHLSAMDLINVISVSTTWRKLLQKDNWAYNAYKLGCKELCEKRAKVSSHTATRDESLCRVPLASVQKVAASSLCTSKKQSKNKNGGLSCNRLAEFIEVAQTLKNDQSLKVCVDCGSPAKHDPCLHRAICTRESCKLDFCTRCSCKYHFSKSCLMSKPGSYRIPSEPLPGSKKSKQNLRRL
notes: 392 residues; also called xEmi1; Emi1p
